Test results: patent EP4803537A1 (PHRONTLINE BIOPHARMA (SUZHOU) CO., LTD, dated 2026)

Tests used:
[1] = target: T1, Recombinant human EGFR protein (ACRO Biosystems, EGR-H5222) (human, UniProt P00533 25-645); experiment: ELISA, EGFR coated on the plate
T1 construct: Bought protein

[2] = target: T2, recombinant human FcγRI protein (ACRO Biosystems, Cat. FCA-H52H1) (human, UniProt P12314 16-288, limits assumed); experiment: BLI (Octet Red 96), FcγRI on HIS1K sensors
T2 construct: Captured on anti-His (HIS1K) biosensors, so it carries a His tag; also called FcγRI receptor
T2 sequence (P12314 16-288 limits assumed): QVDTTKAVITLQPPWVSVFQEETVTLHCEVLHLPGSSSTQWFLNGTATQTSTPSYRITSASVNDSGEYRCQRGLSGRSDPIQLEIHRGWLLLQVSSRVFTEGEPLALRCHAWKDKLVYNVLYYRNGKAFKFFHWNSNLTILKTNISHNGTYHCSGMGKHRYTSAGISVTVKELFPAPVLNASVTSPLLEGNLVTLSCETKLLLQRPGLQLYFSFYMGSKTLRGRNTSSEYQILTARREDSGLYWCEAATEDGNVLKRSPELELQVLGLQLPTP

binding result [1] | binding result [2] | Binder
binds | binds | Fab-Fc/Fab-Fc bispecific antibody (zalutumumab Fab x pertuzumab Fab), KIH combination (K0/H0) (bispecific antibody, human IgG1, kappa, Human IgG1 Fc (hinge, CH2, CH3); the exact junction between VH-CH1 and Fc (EU 221-447) is not spelled out; also called KIH control) heavy 1: not shown light 1: not shown heavy 2: not shown light 2: not shown
binds | binds | Fab-Fc/Fab-Fc bispecific antibody (zalutumumab Fab x pertuzumab Fab), M2 mutant combination (K0/H8) (bispecific antibody, human IgG1, kappa, Human IgG1 Fc; Junction between VH-CH1 and Fc not spelled out; no linker named for this format) heavy 1: not shown light 1: not shown heavy 2: EVQLVESGGGLVQPGGSLRLSCAASGFTFTDYTMDWVRQAPGKGLEWVADVNPNSGGSIYNQRFKGRFTLSVDRSKNTLYLQMNSLRAEDTAVYYCARNLGPSFYFDYWGQGTLVTVSSASTKGPSVFPLAPSSKSTSGGTAALGCLVKDYFPEPVTVSWNSGALTSGVHTFPAVLQSSGLYSLSSVVTVPSSSLGTQTYICNVNHKPSNTKVDKKVEPKSCDKTHTCPPCPAPELLGGPSVFLFPPKPKDTLMISRTPEVTCVVVDVSHEDPEVKFNWYVDGVEVHNAKTKPREEQYNSTYRVVSVLTVLHQDWLNGKEYKCKVSNKALPAPIEKTISKAKGQPREPQVYTYPPSREEMTKNQVSLSCAVKGFYPSDIAVEWESNGQPENNYKTTPPVLDSDGSFFLVSKLTVDKSRWQQGNVFSCSVMHEALHNHYTQKSLSLSPGK light 2: not shown
binds | binds | Fab-Fc/Fab-Fc bispecific antibody (zalutumumab Fab x pertuzumab Fab), M3 mutant combination (K2/H7) (bispecific antibody, human IgG1, kappa, Human IgG1 Fc; Junction between VH-CH1 and Fc not spelled out; no linker named for this format) heavy 1: not shown light 1: not shown heavy 2: EVQLVESGGGLVQPGGSLRLSCAASGFTFTDYTMDWVRQAPGKGLEWVADVNPNSGGSIYNQRFKGRFTLSVDRSKNTLYLQMNSLRAEDTAVYYCARNLGPSFYFDYWGQGTLVTVSSASTKGPSVFPLAPSSKSTSGGTAALGCLVKDYFPEPVTVSWNSGALTSGVHTFPAVLQSSGLYSLSSVVTVPSSSLGTQTYICNVNHKPSNTKVDKKVEPKSCDKTHTCPPCPAPELLGGPSVFLFPPKPKDTLMISRTPEVTCVVVDVSHEDPEVKFNWYVDGVEVHNAKTKPREEQYNSTYRVVSVLTVLHQDWLNGKEYKCKVSNKALPAPIEKTISKAKGQPREPQVYTYPPSREEMTKNQVSLSCAVKGFYPSDIAVEWESNGQPENNYKTTPPVLRSDGSFFLVSKLTVDKSRWQQGNVFSCSVMHEALHNHYTQKSLSLSPGK light 2: not shown
binds | binds | Fab-Fc/Fab-Fc bispecific antibody (zalutumumab Fab x pertuzumab Fab), M1 mutant combination (K2/H2) (bispecific antibody, human IgG1, kappa, Human IgG1 Fc; Junction between VH-CH1 and Fc not spelled out; no linker named for this format) heavy 1: not shown light 1: not shown heavy 2: EVQLVESGGGLVQPGGSLRLSCAASGFTFTDYTMDWVRQAPGKGLEWVADVNPNSGGSIYNQRFKGRFTLSVDRSKNTLYLQMNSLRAEDTAVYYCARNLGPSFYFDYWGQGTLVTVSSASTKGPSVFPLAPSSKSTSGGTAALGCLVKDYFPEPVTVSWNSGALTSGVHTFPAVLQSSGLYSLSSVVTVPSSSLGTQTYICNVNHKPSNTKVDKKVEPKSCDKTHTCPPCPAPELLGGPSVFLFPPKPKDTLMISRTPEVTCVVVDVSHEDPEVKFNWYVDGVEVHNAKTKPREEQYNSTYRVVSVLTVLHQDWLNGKEYKCKVSNKALPAPIEKTISKAKGQPREPQVYTLPPSREEMTKNQVSLSCAVKGFYPSDIAVEWESNGQPENNYKTTPPVLRSDGSFFLVSKLTVDKSRWQQGNVFSCSVMHEALHNHYTQKSLSLSPGK light 2: not shown
